These results are taken from article PMC4852450, “SepG coordinates sporulation-specific cell division and nucleoid organization in Streptomyces coelicolor” (Open Biology, 2016).

The target in one assay is T1, SepG–mCherry (S. coelicolor, UniProt Q9S2X3 1-94).
T1 construct: SepG (YlmG), SCO2078, 94 aa membrane protein of Streptomyces coelicolor; called full-length sepG in the methods; egfp of pGWS755 replaced by the gene for mCherry; also called YlmG; SCO2078; source: S. coelicolor M145, expressed from the ftsZ promoter region (pGWS791), in living aerial hyphae; not shown: mCherry, C-terminal, kept
T1 sequence (looked up): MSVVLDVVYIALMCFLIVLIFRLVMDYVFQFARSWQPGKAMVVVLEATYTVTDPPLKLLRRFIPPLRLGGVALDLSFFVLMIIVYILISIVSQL
The assay can be described thus: FRET or BRET; acceptor photobleaching in living S. coelicolor M145 hyphae; donor eGFP, acceptor mCherry; post-bleach donor intensity relative to the pre-bleach intensity (set to 1). The settings on record: partners not purified.

Another assay deals with T2, FtsZ–mCherry (S. coelicolor, UniProt P45500 1-399).
T2 construct: FtsZ, cell division scaffold protein of Streptomyces coelicolor; The FtsZ–mCherry construct is not described in the main text; source: S. coelicolor M145, expressed in living aerial hyphae
T2 sequence (looked up): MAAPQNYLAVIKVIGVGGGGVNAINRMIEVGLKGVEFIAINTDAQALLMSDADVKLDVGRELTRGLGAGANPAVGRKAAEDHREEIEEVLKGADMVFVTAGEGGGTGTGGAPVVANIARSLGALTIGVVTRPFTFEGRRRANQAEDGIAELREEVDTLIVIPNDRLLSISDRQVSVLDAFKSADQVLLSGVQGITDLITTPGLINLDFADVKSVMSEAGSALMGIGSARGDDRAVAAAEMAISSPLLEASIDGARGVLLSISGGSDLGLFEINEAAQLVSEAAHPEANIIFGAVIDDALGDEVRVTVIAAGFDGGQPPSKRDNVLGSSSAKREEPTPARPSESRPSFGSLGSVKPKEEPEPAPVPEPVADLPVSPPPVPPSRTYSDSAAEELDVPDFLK
The description is as above. The settings on record: partners not purified.

B1: SsgB–eGFP (natural protein, S. coelicolor, UniProt Q9L268 1-137, looked up)
chain: MNTTVSCELHLRLVVSSESSLPVPAGLRYDTADPYAVHATFHTGAEETVEWVFARDLLAEGLHRPTGTGDVRVWPSRSHGQGVVCIALSSPEGEALLEAPARALESFLKRTDAAVPPGTEHRHFDLDQELSHILAES
notes: SsgB, SCO1541, FtsZ-recruiting cell division protein of Streptomyces coelicolor; also called SCO1541; source: S. coelicolor M145, expressed in living aerial hyphae
For the molecule B1, the figures for the “donor fluorescence intensity after acceptor photobleaching, relative to before (FRET)” value with SepG–mCherry and with FtsZ–mCherry were 1.05 and 1.08, respectively.
